Target: cAMP response element-binding protein 1 (CREB1) (UniProt P16220)
Sequence (P16220 whole entry): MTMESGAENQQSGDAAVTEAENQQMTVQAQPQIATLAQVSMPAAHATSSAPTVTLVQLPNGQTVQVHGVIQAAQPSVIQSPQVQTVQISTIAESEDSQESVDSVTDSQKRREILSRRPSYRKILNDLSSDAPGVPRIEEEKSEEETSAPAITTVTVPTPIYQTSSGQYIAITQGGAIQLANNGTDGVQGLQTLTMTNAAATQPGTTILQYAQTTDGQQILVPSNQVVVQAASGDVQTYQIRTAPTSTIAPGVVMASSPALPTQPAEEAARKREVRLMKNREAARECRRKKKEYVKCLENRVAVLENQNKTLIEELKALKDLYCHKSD

For protein kinase B (AKT) subunit AKT1, the “p-CREB1 expression after siRNA against AKT1, AKT2 and AKT3, immunoblotting assay” value was “only AKT1 phosphorylated and activated its downstream effector cAMP response element-binding protein 1 (CREB1)”.
